The results in this text go back to the nanobody polyreactivity screen of Harvey et al. (2022).

The series in a line: yeast display, Sf9 membrane polyspecificity reagent, FACS + sequencing; frameworks hold sequencing errors. The gist of the method: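 Galactose induction of a Saccharomyces cerevisiae BJ5465 synthetic nanobody display library ran 36–48 hours. The cells were then stained for 1 hour at 4 °C with 10% biotinylated, detergent-solubilized Sf9 membrane reagent, pulled down on streptavidin microbeads and FACS-sorted into low and high (top ~1%) gates on expression and reagent-binding fluorescence. Labels for polyreactivity follow the gate of origin.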
Turning to “QVQLVESGGGLVQAGGSLRLSCAASGRTFGRNTMGWYRQAPGKERELVAAIDWSGGSTYYADSVKGRFTISRDNAKNTVYLQMNSLKPEDTAVYYCAAKTRWNFYYWGQGTQVTVSS”, the “polyreactivity (PSR sort gate)” value is given as “high polyreactivity”.
Turning to “QVQLVESGGGLVQAGGSLRLSCAASGFTFYTNAMGWYRQAPGKERDMVAVITSGGNTYYADSVKGRFTISRDNAKNTVYLQMNSLKPEDTAVYYFAAIPKRPIRFDYWGQGTQVTVSS”, the “polyreactivity (PSR sort gate)” value was “high polyreactivity”.
As for “QVQLVESGGGLVQAGGSLRLSCAASGSTFEYNVMGWYRQAPGKERELVASITSDGNTNYSDSVKGRFTISRDNAKNTVYLQMNSLKPEDTAVYYCNFYTWHWTFGMDYWGQGTQVTVSS”, the “polyreactivity (PSR sort gate)” value was “low polyreactivity”.
Turning to “QVQLVESGGGLVQAGGSLRLSCAASGSTFYFYARGWYRQAPGKERELVAVISSGGTTNYADSVKGRFTISRDNAKNTVYLQMNSLKPEDTAVYYCNAEPPRGYTVSSGGEMDYWGQGTQVTVSS”, the “polyreactivity (PSR sort gate)” value is on record as “low polyreactivity”.
On to “QVQLVESGGGLVQAGGSLRLSCAASGFIFSQYAMGWYRQAPGKERELVAAISYSGGSTYYADSVKGRFTISRDNAKNTVYLQMNSLKPEDTAVYYCAVSGRSYYRSDYWGQGTQVTVSS”, for which the “polyreactivity (PSR sort gate)” value is reported as “high polyreactivity”.
Consider “QVQLVESGGGLVQAGGSLRLSCAASGGTFQRYVMGWYRQAPGKERELVAAISRSGSTYADSVKGRFTISRDNAKNTVYLQMKSLKPEDTAVYYCNVVSYYRYYLHGYDYWGQGTQVTVSS”, for which the “polyreactivity (PSR sort gate)” value is listed as “high polyreactivity”.
In the case of “QVQLVDSGGGLVQAGGSLRLSCASSGIIFGYYAMGWYRPAPGKERELVAGITYRTGSTDYADSVKGRFTISRDNAKNTVYFQMNSLKPEDTAVYFCAATQDKRKYSSCYYYWGQGTQVTVSS”, the “polyreactivity (PSR sort gate)” value was “high polyreactivity”.
“QVQLVESGGGLVQAGGSLRLSCAASGRIITYNAMGWYRQAPGKERELVAAISTTGGRTYYADSVKGRFTISRDNAKNTVYLQMNSLKPEDTAVYYCNAVLKRPLAYHVTYDYWGQGTQVTVSS”: the “polyreactivity (PSR sort gate)” value was “high polyreactivity”.
For the sequence “QVQLVESGGGLVQAGGSLRLSCAASGSIFVGYAMGWYRQAPGKEREMVAAITGSGTRTYYADSVKGRFTISRDNAKNTVYLQMNSLKPEDTAVYYCAAPLSYKNVKYDYWGQGTQVTVSS”, the “polyreactivity (PSR sort gate)” value is listed as “low polyreactivity”.
Regarding “QVQLVESGGGLVQAGGSLRLSCAASGFIDAYTMGWYRPAPGKERELVAAITWSGGRTSYADSVKGRFTISRDTAKNTVYLQMNSLKPEDTAGYYCAKDVTPYSPDDDYWGQGTQVTVSS”, the “polyreactivity (PSR sort gate)” value was “low polyreactivity”.
As for “QVQLVESGGGLVQAGGSLRLSCAASGSIFSPNARGWYRQAPGKEREVVAGISWSGDGTYYADSVKGRFTISRDYAKNTVYLQMNSLKPEDTAVYYCAARFGRYSHRYYYWGQGTQVTVSS”, the “polyreactivity (PSR sort gate)” value is recorded as “high polyreactivity”.
As to “QLQHVESGGCLDQAGGSLRLSCAASGGIIPYRGWYRQAPGKQRELVASITSSGGSTYYADSVKGRFTISRDNAKNTVYLQMNSLKPEDTAVFYCAADPDFYKSVQYDYWGQGTQVTVSS”, the “polyreactivity (PSR sort gate)” value is given as “low polyreactivity”.
Take “QVQLVESGGGLVHAGGSLRLSCAASGSIFVVYTMGWYRQAPGQERELVAAITQNGGSSTYYADSVKGRFTISRDNAKNTVYLQMNSLKPEDTAVYYCNKDILSPVVRIFKYGYDMDYWGQGTQVTVSS”: the “polyreactivity (PSR sort gate)” value is “low polyreactivity”.
For “QVQLVESGGGLVQAGGSLRLSCAPSGSIFFPYAIGWYRQAPGKESELVAAISYSGTSTYYADSVKGRFTISRDNAKNTVYLQMNSLIPEDTAVYYCAAEVIGRYIEYYYWGQGTQVTVSS”, the “polyreactivity (PSR sort gate)” value was “high polyreactivity”.
For “QVQLVESGGGLVQAGGSLRLSCAASGSIFPVNAMGLYRQAPGKERELVAAITASGDSTYYADSVKGRFTISRDNAKNTVYLQMNSLKPEDTAVYYCNADGSYENREVYSFYYWGQGTQVTVSS”, the “polyreactivity (PSR sort gate)” value was “low polyreactivity”.
With “QVQLVESGGGLDQARGSLRLSCAASGRTFSSNAMGWYRQAPWKERELVAAISSSGAGTYYADSVKGRFTISRDNAKNTVYLQMNSLKPEDTAVYYCAARANSYHSFTSHYDYWGQGTQVTVSS”, the “polyreactivity (PSR sort gate)” value is “low polyreactivity”.
Consider “QVQLVESGGGLVQAGGSLRLSCAASGRIFSWYAMGWYRQAPGKERELVARITTRGGNTYYADSVKGRFTFSRDNAKNTVYLQMNSLKPEVTAVYYCAARHPYPIYDYWGQGTQVSVSS”, for which the “polyreactivity (PSR sort gate)” value is “low polyreactivity”.
In the case of “QVQLVESGGGLVQAGGSLRLSCAASGITFRTYAMGWNRQAPGKERELVAAITRRGGSTYYADSVKGRFTISRDNAKNTVYLQMNSLKPEDTAVYYCAVRHNGIQASVGYDYWGQGTQVTVSS”, the “polyreactivity (PSR sort gate)” value was “high polyreactivity”.
Take “QVQLVESGGGLVQAGGSLRLSSAASGLTFSDYAMAWYRQAPGKERELVAGISSGGSTYYADSVKGRFTISRDNAKNTVYLQMNSLKPEDTAVYYCAATRYNRWPIKFDYWVQGTQVTVSS”: the “polyreactivity (PSR sort gate)” value is recorded as “high polyreactivity”.
As for “QVQLVESGGGLVQAGGSLRLSCAASGSTFGGYAMGWYRQAPGKERELVATINYSDGSTYYADSVKGRFTISRDNAKNTVYLQMNSLKPEDTAVYYCAKRFGSGWAWFGYWGQGTQVTVSS”, the entry is “low polyreactivity”; as for “QVQLVESGGGLVQAGGSLRLSCAASGSTFTEYAMGWYRQAPGKERELVAAITRSGGGTYYADSVKGRFTISRDNAKNTVYLQINSLKPEDTAVYYCAKDWYRRYIRDYWGQGTQVTVSS”, “high polyreactivity”.
As for “QVQLVESGGGLVQAGGSLRLSCAASGRIFGGNAMGGYRQAPGKERELVAAITTGGSTNYADSVKGRFTISRDNAKNTVYLQMNSLKPEDTAVYYCNKRQSARLYGDTYDYWGQGTQVTVSS”, the entry is “low polyreactivity”; as for “QVQLVESGGGLVQAGGSLRVSCAASGSTFVGNAMGWYRQEPGKERELVADITSGGSTNYADSVKGRFTISRDNAKNTVYLQMKSLKPEDTAVYYFAAVYLCSQRREFWGQGTQVTVSS”, “low polyreactivity”.
For “QVQLVESGGGLVQAGGSLRLSCAASGFTFTKNAMGWYRQAPGKERELVAAISRGGGRTYYADSVKGRFTISRDNAKNTVYLQMNSLKPEDTAVYYCNVDKVGPGYDYWGQGTQVTVSS” the value was “high polyreactivity”; for “QGQLVESGGGLVQAGGNLRLSCAASGSIFSDYTMGWYRQAPGKERELVAVITLSAGSTYYADSVKGRFTISRDNAKNTVYLQMNSLKPEDTAVYYCAADGWYYFGSGVFEYDYWGHGTQVTVSS”, “low polyreactivity”.
Regarding “QVQLVESGGGLVQAGGSLRISCAASGSNFNPYDMGGYRQAPGKESELVAAIRTAGSTYYADSVKGRFTISRDNAKNTVYLQMISLNPEDTAVYYCNADEGFLYSAYEYDYWGQGTQVTVSS”, the “polyreactivity (PSR sort gate)” value is recorded as “low polyreactivity”.
For “QVQLVESGGGLVQAGGSLRLSCAASGFILGLNALGWYRHAPGKAWEFVADISWSGDSTYYADSVKGRFTISRDNAKNTVYLQMNSRKPEDTAVYYCPAVWYTSRQKYDYWGQGTQGTVSS”, the “polyreactivity (PSR sort gate)” value is reported as “low polyreactivity”.
As for “QLQLVESGGGLVQAGGSLRLSCAASGRIFEYYAMGWYRQAPGKERELVAAISWSGGSTYYADSVKGRFTISRDNAKNTVYLQMNSLTPEDTAVYYCARDLPYYSISRYDYWGLGTQVTVSS”, the “polyreactivity (PSR sort gate)” value is “high polyreactivity”.
Turning to “QVQLQESGGGLVQAGGSLRLSCAASGTISPLPAMGWYRQAPGKEPEFVAGIDTGAITNYADSVKGRFTISRDNAKNTVYLQMNSLKPEDTAVYYCAVFPAAYDYYERYYTYWGQGTQVTVIS”, the “polyreactivity (PSR sort gate)” value was “low polyreactivity”.
Turning to “QVQLVESGGGLVQAGGSLRLSCAASGRSFCSYAMGWYRHAPGKERELVAAITSGGSTNYADSVKGRFTISRDNAKNTVYLQMNSLKPEVTAVYYCAAVEYLRESDYWGQGTQVTVSS”, the “polyreactivity (PSR sort gate)” value was “low polyreactivity”.
For “QVQLVESGGGLVQAVGSLRLSCAASGSIYGYAMGWYIQAPGKERELVAAISGRGGRTYYADSVKGRFTISRDNAKNTVYLQMNSLKPEDTAVYYCNFQWRYPYHYTVDYWGQGTQVTVSS”, the “polyreactivity (PSR sort gate)” value is “high polyreactivity”.
In the case of “QVQLVESGGGLVQAGGSLRLSCAASGIIFSTYAMGWYRQAPGKERELVAAISVSGGRTYYADSVKGRFTISRDNAKNTVYLQMNSLKREDTAVYSCNALSSTEYDYWGQGTQVTVSS”, the “polyreactivity (PSR sort gate)” value is “high polyreactivity”.
For the sequence “QVQLVESGGGLVQAGGSLRLSCAASGFNFYGYAMGWYRQAPGKERQLVATISRGGSTTYYADSVKGRFTISRDNAKNTVYLQMNSLKPEDTAVYYCAAYNVIYTRRMYYWGQGTQVTVSS”, the “polyreactivity (PSR sort gate)” value is “high polyreactivity”.
Turning to “QVQLVESGGGLVQAGGSLRLSCAASGRTFPYYTMGWYRQAPGKERELVAAINSSGGRTYYADSVKGRFTISRDNAKNTVYLQMNSLKPEDTAAYYCAKRGYYKYDWGQGTQVTVSS”, the “polyreactivity (PSR sort gate)” value is on record as “high polyreactivity”.
For the sequence “QGQLVESGGALVQAGGSLRLSCAASGGTFFYYVMGWYRQAPGQERELVAAITGAGGSTYYADSVKGRFTSSRDNAKNTVYLQMNSLKPEDTAVYYCAADVSFTQSDGRLAEYGYWGQGTQVTVSS”, the “polyreactivity (PSR sort gate)” value is “low polyreactivity”.
For the sequence “QVQLVESGGGLVQAGGSLRLSCAASGSTSTRNAMGWYRPAPGKERELVAAITSGGNTYYADSVKGRFTISRDNAKNTVYLQMNSLKPEDTAVYYCAAASPGPWRYDYWGQGTQVTVSS”, the “polyreactivity (PSR sort gate)” value was “high polyreactivity”.
Turning to “QVHLVDSGGGLVQAGGRLRLSCAASASIFLIYAMGWYRQAPGQERELVAAINYSGVRTYYADSVKGRFTISRDNAKNTVYLQMNSLKPEDSAVYYCAVSRGGAYYQYGYWGQGTQVSVSS”, the “polyreactivity (PSR sort gate)” value is on record as “high polyreactivity”.
“QVQLVESGGGLVQAGGSLRLSCAASGSTFYKNAMGWYRQAPGKERELVAGISRRGGRTYYADSVKGRFTISRDNAKNTVYLQMNSLKPEDTAVYYCNTGHEEDEYDYWGQGTQVTVSS”: the “polyreactivity (PSR sort gate)” value is recorded as “low polyreactivity”.
Take “QVQLQESGGGLVQAGGCLRLSCAASGTSFDPDYMGWYHQAPGKERELVASISLGRITYNADSVKGRFTINRDNAKNTVYLQMNSLKPEDTAVYYCAVRVETIYYYSYWGQGTQVTVSS”: the “polyreactivity (PSR sort gate)” value is “high polyreactivity”.
As for “QVQLVESGGALVQAGGSLRLSCAASGITFYDNAMGWYRQAPGKERELVAGISYSGGRTYYADSVKGRFTISRDNAKNTVYLQMNSLIPEDTAVDYCNARFGKYRSRQGYYYWGQGTQVTVSS”, the “polyreactivity (PSR sort gate)” value is “high polyreactivity”.
Turning to “QFQLVESGGGLVQAGGSLRLSCAASGRTFGVYAMGWYRQAPGKERELVAAIRWSGGGTYYADSVKGRFTISRDNAKNTVYLQMNSLKPEDTAVYYCAADSLLVLFDYWGQGTQVTVSA”, the “polyreactivity (PSR sort gate)” value is listed as “low polyreactivity”.
